Test results: patent publication US20230212235A1

Assays:
GFP [GFP: P42212] [1] = test: SPR, GFP immobilised; order of magnitude told of all four nanobodies
GFP [GFP: P42212] [2] = test: SPR, GFP immobilised, nanobody injected; kinetic Kd
GFP [GFP: P42212] [3] = test: SPR, GFP immobilised, nanobody injected; equilibrium Kd

koff (GFP [GFP: P42212] [1]): 0.0001 s⁻¹
kon (GFP [GFP: P42212] [1]): 10000 M⁻¹ s⁻¹
Kd (GFP [GFP: P42212] [2]): 18.9 nM
Kd (GFP [GFP: P42212] [3]): 233 nM
Substance: GBN^WT (wild-type GFP-binding nanobody) (VHH)
